# Publication PMC13355702
# How the values were obtained:
# [1] = target: BcM60K (metallopeptidase domain of the Bacteroides caccae peptidase_M60 O-glycopeptidase BcM60K) (Bacteroides caccae)
Substance,KM of cleavage of the FRET substrate (global fit of progress curves) (BT4244),KM of cleavage of the FRET substrate (global fit of progress curves) [1]
"FRET substrate mNeonGreen-IgA1 hinge linker-mScarlet-I, Tn-modified (domain or fragment)",1 µM,–
"FRET substrate mNeonGreen-MUC5AC_R2 linker-mScarlet-I, C1-modified (domain or fragment)",2.9 µM,6.2 µM
"FRET substrate mNeonGreen-MUC5AC_R2 linker-mScarlet-I, 6SC1-modified (domain or fragment)",–,2.5 µM
"FRET substrate mNeonGreen-MUC5AC_R2 linker-mScarlet-I, Tn-modified (domain or fragment)",2.9 µM,7.8 µM
"FRET substrate mNeonGreen-MUC2_R1 linker-mScarlet-I, Tn-modified (domain or fragment)",5.6 µM,–
"FRET substrate mNeonGreen-MUC5AC_R2 linker-mScarlet-I, 3SC1-modified (domain or fragment)",–,7.6 µM
"FRET substrate mNeonGreen-MUC5AC_R2 linker-mScarlet-I, C2-modified (domain or fragment)",–,4.5 µM
